Source: article PMC4927282

Target: caveolin-1 (Cav1) (UniProt Q03135)
Test: acceptor-photobleaching FRET, CFP/YFP pairs
Conditions: reference: Y14F-CFP/Y14F-YFP pair; sites Y14

Sequence of UniProt Q03135 (Q03135 whole entry, stated change not applied): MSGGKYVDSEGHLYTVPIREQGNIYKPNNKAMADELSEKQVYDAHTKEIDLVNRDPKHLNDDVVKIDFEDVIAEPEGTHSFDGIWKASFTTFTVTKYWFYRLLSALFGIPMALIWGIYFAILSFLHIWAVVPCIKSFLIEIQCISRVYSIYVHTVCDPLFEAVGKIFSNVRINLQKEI

other: FRET efficiency: weaker; reference 0.90 ± 0.13
Substance: caveolin-1 (Cav1) (from UniProt Q03135) Y14D-CFP/Y14D-YFP pair
